Measurements: CN113735974A (HANGZHOU BANGSHUN PHARMACEUTICAL CO LTD, dated 2021)
Blank lines part the entries; values can stand above or below the binder they belong to.

Legend:
[1] = molecular target: T1, 人Claudin18.2蛋白 (human Claudin18.2) (human, UniProt P56856-2 1-261); test: flow cytometry (FACS) on Claudin18.2-positive HEK293 cells, 0.1-10 μg/mL, FITC goat anti-human IgG
T1 construct: whole, on cells; also called CLD18.2; 密蛋白18.2

[2] = molecular target: T2, 人Claudin18.1 (human Claudin18.1) (human, UniProt P56856 1-261); test: flow cytometry (FACS) on Claudin18.1-positive HEK293 cells, FITC goat anti-human IgG
T2 construct: whole, on cells; also called CLD18.1; 密蛋白18.1

binding result [1]: binds
binding result [2]: no binding (tested: 0.1-10 μg/mL tested)
B1: HDR002C04 (antibody, human IgG1, lambda, V domains shown)
VH: QVQLVQSGAEVKKPGASVKVSCKASGYTFTSYYMHWVRQAPGQGLEWMGIINPSGGSTSYAQKFQGRVTMTRDTSTSTVYMELSSLRSEDTAVYYCAKGSVDTAMVPGVDYWGQGTLVTVSS
VL: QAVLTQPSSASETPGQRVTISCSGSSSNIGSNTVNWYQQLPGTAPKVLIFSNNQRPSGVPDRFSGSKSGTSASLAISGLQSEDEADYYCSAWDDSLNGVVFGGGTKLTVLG
notes: also called 抗体HDR002C04; 抗Claudin18.2抗体

binding result [1]: binds
binding result [2]: no binding (tested: 0.1-10 μg/mL tested)
B2: HDR002C06 (antibody, human IgG1, kappa, V domains shown)
VH: QVQLQESGPGLVKPSQTLSLTCTVSGGSISSGGYYWSWIRQHPGKGLEWIGYIYYSGSTYYNPSLKSRVTISVDTSKNQFSLKLSSVTPDDTAKYYCARIVASVGGVDVWGQGTTVTVSS
VL: DIQLTQSPSSVSASVGDRVTITCRASQGISSWLAWYQQKPGKAPKLLIYAASSLQSGVPSRFSGSGSGTDFTLTISSLQPEDFATYYCQQANSFPLTFGGGTKVEIKR
notes: also called 抗体HDR002C06; 抗Claudin18.2抗体
